In patent publication US20250206813A1 (NVH MEDICINAL, published 2025):

B1: VHH-H8 (VHH)
VHH: EVQLQASGGGFVQPGGSLRLSCAASGYTSDLTVMGWFRQAPGKEREFVSAISSHFGPPHYYADSVKGRFTISRDNSKNTVYLQMNSLRAEDTATYYCAMRERRHSWWYWGQGTQVTVSS
notes: Synthetic nanobody (hsd2ab library), pET29b(+) vector, pelB signal; not shown: C-terminal 6-His tag
B2: VHH-H7 (VHH)
VHH: EVQLQASGGGFVQPGGSLRLSCAASGYYFRGEDMGWFRQAPGKEREFVSAISDDSTATIYYADSVKGRFTISRDNSKNTVYLQMNSLRAEDTATYYCAPGWYIYLDWSESGSAYWGQGTQVTVSS
notes: as for B1
B3: VHH-I3 (VHH)
VHH: QVQLVESGGGLVEPGGSLRLSCAVSGSTFSMNVMGWYRQAPGKHREWVGSIGTGGGTNYPDSVKGRFTISRDNVKKTVYLQMNSLKPEDTAVYYCNKIPHNWGWGQGTQVTVSS
notes: Llama nanobody, pHEN6 vector, pelB signal, produced in E. coli periplasm; also called nanobody I3; 13; not shown: C-terminal 6-His tag
B4: VHH-H9 (VHH)
VHH: EVQLQASGGGFVQPGGSLRLSCAASGDTFNLTTMGWFRQAPGKEREFVSAISSSNTHIAYYADSVKGRFTISRDNSKNTVYLQMNSLRAEDTATYYCAYTYYGKNGKGMVYWGQGTQVTVSS
notes: as for B1
B5: VHH-H10 (VHH)
VHH: EVQLQASGGGFVQPGGSLRLSCAASGYGWWIYEMGWFRQAPGKEREFVSAISWADGTRTYYADSVKGRFTISRDNSKNTVYLQMNSLRAEDTATYYCAIYILEGTQGVPIYWGQGTQVTVSS
notes: as for B1
B6: VHH-I4 (VHH)
VHH: QVQLVESGGGSVAAGESLTLSCRMSGSTSSIQAMGWYRRAPGNQREWLATISPRGNTNYADSVKGRFTISRDNAKNTVYLQMNSLKPADTAVYYCNTVPSGGIPWGQGTQVTVSS
notes: Llama nanobody, pHEN6 vector, pelB signal, produced in E. coli periplasm; also called nanobody I4; not shown: C-terminal 6-His tag
B7: VHH-H1 (VHH)
VHH: EVQLQASGGGFVQPGGSLRLSCAASGRTWSFYAMGWFRQAPGKEREFVSAISWNGGGEHYYADSVKGRFTISRDNSKNTVYLQMNSLRAEDTATYYCAHMEFSQSDYIISKWIYWGQGTQVTVSS
notes: as for B1
B8: VHH-I5 biotinylated at its C-terminus using sortase (VHH)
VHH: QVQLVESGGGLVQPGGFLRLLCTASGNIFSSNTMGWYRRAPGKQREWVASISKGGSTNYADSVKDRFTISRSITKNTVYLQMVNLKPEDTAVYYCNPVPDSDNYASGQGTQVTVSS
modifications: C-terminal biotin (GGGK-biotin ligated by Sortase A at the LPETG site)
notes: pHEN vector with LPETG and 6-His; Captured on streptavidin; also called biotinylated VHH-I5; not shown: GGGK-biotin ligated by Sortase A in place of the 6-His label
B9: VHH-I5 (VHH)
VHH: QVQLVESGGGLVQPGGFLRLLCTASGNIFSSNTMGWYRRAPGKQREWVASISKGGSTNYADSVKDRFTISRSITKNTVYLQMVNLKPEDTAVYYCNPVPDSDNYASGQGTQVTVSS
notes: Llama nanobody, pHEN6 vector, pelB signal, produced in E. coli periplasm; also called nanobody-I5; 15; not shown: C-terminal 6-His tag
B10: VHH-I7 (VHH)
VHH: QVQLVESGGGLVPPGGSLKLSCTASGSIFSSNVMGWYRRAPGKQREWVASISRGGGTNYPDSVKGRFTVSRDIAKNTVYLQISSLKPEDTAVYYCNPIPYSGDYVSGQGTQVTVSS
notes: Llama nanobody, pHEN6 vector, pelB signal, produced in E. coli periplasm; also called nanobody I7; 17; not shown: C-terminal 6-His tag
B11: VHH-H6 (VHH)
VHH: EVQLQASGGGFVQPGGSLRLSCAASGFTSARYNMGWFRQAPGKEREFVSAISRHTDRQTYYADSVKGRFTISRDNSKNTVYLQMNSLRAEDTATYYCAVGMMPKQKQYWGQGTQVTVSS
notes: as for B1
B12: VHH-H4 (VHH)
VHH: EVQLQASGGGFVQPGGSLRLSCAASGFTSEISNMGWFRQAPGKEREFVSAISGTHTTQTYYADSVKGRFTISRDNSKNTVYLQMNSLRAEDTATYYCAAEQDMSDLWLGSYWGQGTQVTVSS
notes: Synthetic nanobody (hsd2ab library), pET29b(+) vector, pelB signal; also called nanobody-H4; not shown: C-terminal 6-His tag
B13: VHH-H4 biotinylated at its C-terminus using sortase (VHH)
VHH: EVQLQASGGGFVQPGGSLRLSCAASGFTSEISNMGWFRQAPGKEREFVSAISGTHTTQTYYADSVKGRFTISRDNSKNTVYLQMNSLRAEDTATYYCAAEQDMSDLWLGSYWGQGTQVTVSS
modifications: C-terminal biotin (GGGK-biotin ligated by Sortase A at the LPETG site)
notes: pHEN vector with LPETG and 6-His; Captured on streptavidin; also called biotinylated VHH-H4; biotinylated H4 nanobody; not shown: GGGK-biotin ligated by Sortase A in place of the 6-His label
B14: VHH-H2 (VHH)
VHH: EVQLQASGGGFVQPGGSLRLSCAASGSTSRDEGMGWFRQAPGKEREFVSAISRDHGWREYYADSVKGRFTISRDNSKNTVYLQMNSLRAEDTATYYCAPVIIDTMEVIPLYWGQGTQVTVSS
notes: as for B1
B15: VHH-I11 (VHH)
VHH: QVQLVESGGGTVQAGGSLRLSCTASGRGRNAMGWYRQVPGGKRELVASINRGGTTDYTDSVKDRFTISRDSAKNTVYLQMDSLQPEDTAVYYCNAESTVIPGHIYDYWGRGTQVTVSS
notes: Llama nanobody, pHEN6 vector, pelB signal, produced in E. coli periplasm; also called nanobody I11; not shown: C-terminal 6-His tag
B16: VHH-I2 (VHH)
VHH: QVQLVESGGGWVQPGGSLRLSCAASGITFSTKTMGWYRQRPGKRREWIGSISPTGFTNYADAVKGRVTISRDNGENTVYLQMNSLKPEDTAVYFCNGVPPVIIDGQSVAYWGQGTQVTVSS
notes: Llama nanobody, pHEN6 vector, pelB signal, produced in E. coli periplasm; also called nanobody I2; not shown: C-terminal 6-His tag
B17: VHH-H3 (VHH)
VHH: EVQLQASGGGFVQPGGSLRLSCAASGATYWFSSMGWFRQAPGKEREFVSAISYWFDDIEYYADSVKGRFTISRDNSKNTVYLQMNSLRAEDTATYYCAMWNEQTGEEYWGQGTQVTVSS
notes: as for B1

How the values were obtained:
[1] = molecular target: T1, PCPE-1 (Procollagen C-proteinase enhancer-1) glycoprotein, human (human, UniProt Q15113 26-449); test: SPR, VHH injected on immobilized PCPE-1
T1 construct: mature; Secreted recombinant protein; also called purified human PCPE-1
T1 sequence (looked up): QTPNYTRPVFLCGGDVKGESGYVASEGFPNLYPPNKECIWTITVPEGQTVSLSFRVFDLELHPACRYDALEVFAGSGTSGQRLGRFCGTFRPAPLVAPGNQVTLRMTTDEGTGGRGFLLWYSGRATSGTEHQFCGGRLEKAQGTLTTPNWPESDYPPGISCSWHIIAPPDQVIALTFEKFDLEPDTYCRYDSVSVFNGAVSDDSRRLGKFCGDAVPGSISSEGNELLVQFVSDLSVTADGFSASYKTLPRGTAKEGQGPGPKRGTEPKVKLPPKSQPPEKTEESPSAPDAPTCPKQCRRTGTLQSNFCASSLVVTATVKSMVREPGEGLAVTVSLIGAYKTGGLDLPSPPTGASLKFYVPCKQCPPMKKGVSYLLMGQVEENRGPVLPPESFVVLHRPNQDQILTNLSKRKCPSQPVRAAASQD

CUB1 domain of PCPE-1 = molecular target: T2, CUB1 domain of PCPE-1 (human, UniProt Q15113 37-149); test: SPR competition: VHH (50 nM) co-injected with the soluble CUB1 domain (250 nM) over immobilized PCPE-1
T2 construct: domain: CUB1
T2 sequence (looked up): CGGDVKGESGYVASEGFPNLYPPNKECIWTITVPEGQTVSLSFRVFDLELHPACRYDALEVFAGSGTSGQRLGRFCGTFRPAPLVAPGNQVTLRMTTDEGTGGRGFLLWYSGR

CUB2 domain of PCPE-1 = molecular target: T3, CUB2 domain of PCPE-1 (human, UniProt Q15113 159-273); test: SPR competition: VHH (50 nM) co-injected with the soluble CUB2 domain (250 nM) over immobilized PCPE-1
T3 construct: domain: CUB2
T3 sequence (looked up): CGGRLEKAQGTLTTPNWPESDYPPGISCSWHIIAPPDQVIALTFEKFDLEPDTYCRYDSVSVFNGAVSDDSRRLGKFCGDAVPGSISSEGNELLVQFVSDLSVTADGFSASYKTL

[2] = molecular target: T1, PCPE-1 (Procollagen C-proteinase …); test: SPR, biotinylated VHH on streptavidin chip; reference PCPE-2
Description: (§1) FIG. 2D: VHHs […] is biotinylated and immobilized on a streptavidin chip (813 RU), then increasing concentrations of PCPE-1 (black) or PCPE-2 (grey) are injected.
(§2) FIG. 2E: VHH H4 is biotinylated and immobilized on a streptavidin chip (491 RU), then increasing concentrations of PCPE-1 or PCPE-2 are injected. [0038] D, E: Interactions are modeled (dotted line) using the Langmuir model (Biacore T200 Evaluation software, Cytiva)
(§3) PCPE-2 is a protein in the same family as PCPE-1, with a 43% identical amino acid sequence. It shares certain activities with PCPE-1, but also has very different specific functions. The specificity of nanobody interaction for PCPE-1 versus PCPE-2 was analyzed by SPR. To achieve this, VHH-I5 and VHH-H4 were biotinylated at their C-terminus using sortase, then immobilized on a streptavidin surface. […] The affinity of VHH-I5 and -H4 for PCPE-1 is therefore at least 250 times greater than for PCPE-2.

[3] = molecular target: T4, PCPE-2 (with a 6-his N-terminal tag) (UniProt Q9UKZ9 24-415); test: SPR, biotinylated VHH on streptavidin chip, PCPE-2 injected
T4 construct: not shown: N-terminal 6-His tag
T4 sequence (looked up): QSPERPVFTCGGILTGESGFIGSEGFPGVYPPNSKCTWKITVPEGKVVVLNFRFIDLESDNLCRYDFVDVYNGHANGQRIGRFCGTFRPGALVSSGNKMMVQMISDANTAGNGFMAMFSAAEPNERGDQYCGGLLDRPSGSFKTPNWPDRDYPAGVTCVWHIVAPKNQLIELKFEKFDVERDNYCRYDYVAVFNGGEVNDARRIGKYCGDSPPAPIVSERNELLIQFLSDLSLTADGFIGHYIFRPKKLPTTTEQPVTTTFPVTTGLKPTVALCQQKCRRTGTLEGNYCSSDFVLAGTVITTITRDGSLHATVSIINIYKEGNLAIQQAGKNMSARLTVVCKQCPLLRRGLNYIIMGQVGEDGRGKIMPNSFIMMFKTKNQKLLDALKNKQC
Description: as §1, §2, §3

[4] = molecular target: T1, PCPE-1 (Procollagen C-proteinase …); test: SPR, biotinylated VHH on streptavidin chip, PCPE-1 injected, 1:1 binding model
Description: as §1, §2, §3

[5] = molecular target: T1, PCPE-1 (Procollagen C-proteinase …); test: SPR competition: PCPE-1 (5 nM) co-injected with VHH on immobilized Mini III; VHH-I5 alone, 5 nM PCPE-1
Description: (§4) Surface plasmon resonance (SPR) experiments were carried out on a Biacore T200 (Cytiva). The ligand proteins, in solution in 10 mM HEPES pH 7.4 buffer for PCPE-1 or 10 mM sodium acetate pH 4.5 buffer for mini-procollagen III and streptavidin, are immobilized on CM5 chips by amine coupling. Analytes are diluted in running buffer (10 mM HEPES pH 7.4, 0.15 M NaCl, 5 mM CaCl₂), 0.05% P20) and injected at a flow rate of 30 or 50 μL/min. Competition, epitope binning and kinetics experiments were all carried out at 25° C. Regeneration was achieved by successive injection of 2 M guanidine chloride and 0.5 M EDTA for 30 sec. Sensorgrams were analyzed with Biacore T200 Evaluation v3.2.1 (Cytiva), using the most suitable models. IC50 was determined by non-linear regression using GraphPad Prism (v8.2.1).
(§5) What is more, their antagonistic effects are additive, and co-injection of a mixture of VHH-I5 and VHH-H4 with PCPE-1 virtually eliminates its interaction with Mini III.

[6] = molecular target: T1, PCPE-1 (Procollagen C-proteinase …); test: SPR competition: PCPE-1 (5 nM) co-injected with VHH on immobilized Mini III; VHH-H4 alone, 5 nM PCPE-1
Description: as §4, §5

Row | Binder | Kd [1] [nM] | other results
1 | B1 | > 250 | 
2 | B2 | 152 | 
3 | B3 | 16 | binding result (CUB1 domain of PCPE-1): no binding (tested: 250 nM)
4 | B4 | > 250 | 
5 | B5 | 18 | binding result (CUB2 domain of PCPE-1): no binding (tested: 250 nM)
6 | B6 | > 250 | 
7 | B7 | > 250 | 
8 | B8 |  | fold affinity for PCPE-1 over PCPE-2 [2]: ≥ 250 fold; Kd [3]: > 1000 nM; Kd [4]: 1.45 nM; koff [4]: 0.00136 s⁻¹; kon [4]: 937000 M⁻¹ s⁻¹
9 | B9 | 7.2 | IC50 [5]: ~24 nM
10 | B10 | 12.8 | 
11 | B11 | > 250 | 
12 | B12 | 30 | IC50 [6]: ~45 nM; binding result (CUB2 domain of PCPE-1): no binding (tested: 250 nM)
13 | B13 |  | fold affinity for PCPE-1 over PCPE-2 [2]: ≥ 250 fold; Kd [3]: > 1000 nM; Kd [4]: 3.88 nM; koff [4]: 0.0195 s⁻¹; kon [4]: 5.04e+06 M⁻¹ s⁻¹
14 | B14 | > 250 | 
15 | B15 | 161 | 
16 | B16 | 154 | 
17 | B17 | > 250 | 
